Experimental data as given in patent US20140242080A1 (Hoffmann-La Roche, published 2014).

T1: murine MCSP D3 (murine, UniProt Q8VHY0 1587-2218, limits assumed)
T1 construct: also called recombinant murine MCSP D3
T1 sequence: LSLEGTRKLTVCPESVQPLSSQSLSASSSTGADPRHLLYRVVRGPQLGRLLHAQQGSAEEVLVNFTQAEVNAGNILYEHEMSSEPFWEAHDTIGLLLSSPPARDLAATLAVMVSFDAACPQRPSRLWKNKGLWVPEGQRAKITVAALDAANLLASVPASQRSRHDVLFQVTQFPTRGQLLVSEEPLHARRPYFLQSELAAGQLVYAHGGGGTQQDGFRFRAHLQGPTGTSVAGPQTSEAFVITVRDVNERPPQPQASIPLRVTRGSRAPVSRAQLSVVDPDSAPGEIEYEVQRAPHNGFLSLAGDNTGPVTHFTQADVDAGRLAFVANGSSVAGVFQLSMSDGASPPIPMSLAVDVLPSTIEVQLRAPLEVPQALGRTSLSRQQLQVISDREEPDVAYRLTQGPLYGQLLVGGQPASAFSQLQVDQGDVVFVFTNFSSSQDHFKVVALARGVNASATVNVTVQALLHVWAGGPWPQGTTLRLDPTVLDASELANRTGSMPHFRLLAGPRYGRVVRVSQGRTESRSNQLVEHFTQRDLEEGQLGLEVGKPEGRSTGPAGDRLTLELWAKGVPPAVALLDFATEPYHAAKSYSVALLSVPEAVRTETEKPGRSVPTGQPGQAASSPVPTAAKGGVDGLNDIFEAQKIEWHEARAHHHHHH

T2: cynomolgus MCSP D3 (cynomolgus, UniProt Q6UVK1 1582-2224 (human entry), limits assumed)
T2 construct: also called Cyno MCSP; cynomolgus homologue
T2 chain: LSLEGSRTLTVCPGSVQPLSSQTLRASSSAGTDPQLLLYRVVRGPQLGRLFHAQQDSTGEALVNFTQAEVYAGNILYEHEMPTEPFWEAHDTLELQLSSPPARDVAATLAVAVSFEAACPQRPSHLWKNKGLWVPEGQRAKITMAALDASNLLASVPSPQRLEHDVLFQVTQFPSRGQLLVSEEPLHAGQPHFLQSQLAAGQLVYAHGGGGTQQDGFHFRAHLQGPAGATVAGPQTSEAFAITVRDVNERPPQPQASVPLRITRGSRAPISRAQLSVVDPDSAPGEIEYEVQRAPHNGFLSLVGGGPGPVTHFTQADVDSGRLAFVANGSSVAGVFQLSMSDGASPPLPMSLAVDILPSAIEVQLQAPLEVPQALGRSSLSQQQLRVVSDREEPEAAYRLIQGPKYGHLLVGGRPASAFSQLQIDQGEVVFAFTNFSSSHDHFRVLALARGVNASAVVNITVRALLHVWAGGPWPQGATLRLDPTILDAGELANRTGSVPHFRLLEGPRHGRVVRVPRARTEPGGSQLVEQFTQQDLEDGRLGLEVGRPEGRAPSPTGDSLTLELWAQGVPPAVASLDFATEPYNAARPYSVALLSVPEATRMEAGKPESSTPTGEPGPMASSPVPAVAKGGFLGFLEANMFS

T3: hu-MCSP(D3 domain)-avi-his (human, UniProt Q6UVK1 1582-2224)
T3 construct: Recombinant D3 domain with avi and his tags; also called human MCSP(D3 domain)-avi-his; Human MCSP D3
T3 sequence: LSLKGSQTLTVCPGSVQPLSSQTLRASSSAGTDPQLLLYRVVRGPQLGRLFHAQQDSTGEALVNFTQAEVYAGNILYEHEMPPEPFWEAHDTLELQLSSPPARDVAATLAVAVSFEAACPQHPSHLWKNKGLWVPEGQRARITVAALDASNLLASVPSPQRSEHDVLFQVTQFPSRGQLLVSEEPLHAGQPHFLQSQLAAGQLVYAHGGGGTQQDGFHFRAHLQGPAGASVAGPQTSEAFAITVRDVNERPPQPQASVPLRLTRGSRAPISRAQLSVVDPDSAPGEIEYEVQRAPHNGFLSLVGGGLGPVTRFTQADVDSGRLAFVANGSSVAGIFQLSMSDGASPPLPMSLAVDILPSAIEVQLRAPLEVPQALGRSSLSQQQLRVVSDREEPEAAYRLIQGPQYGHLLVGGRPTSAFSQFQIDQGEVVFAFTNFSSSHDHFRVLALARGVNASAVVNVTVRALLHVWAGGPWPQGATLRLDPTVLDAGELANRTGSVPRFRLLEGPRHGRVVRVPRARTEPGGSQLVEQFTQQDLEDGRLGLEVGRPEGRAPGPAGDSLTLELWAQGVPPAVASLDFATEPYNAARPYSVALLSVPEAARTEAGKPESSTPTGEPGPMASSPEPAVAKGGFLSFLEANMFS

T4: muFcγRIV-aviHis-biotin (murine, UniProt A0A0B4J1G0 21-203, Biotinylated at the avi tag (tag not included in the letters))
T4 construct: Captured by anti-Penta His antibody; also called murine FcγRIV; not shown: exact C-terminal limit of the soluble construct
T4 sequence: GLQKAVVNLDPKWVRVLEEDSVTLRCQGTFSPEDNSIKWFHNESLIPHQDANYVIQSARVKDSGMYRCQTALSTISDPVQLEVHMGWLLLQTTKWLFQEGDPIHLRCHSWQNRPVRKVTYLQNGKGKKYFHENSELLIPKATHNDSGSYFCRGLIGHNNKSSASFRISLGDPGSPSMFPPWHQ

B1: MCSP TCB (2+1 Crossfab-IgG P329G LALA inverted) (bispecific antibody)
light 1: not shown
light 2: QAVVTQEPSLTVSPGGTVTLTCGSSTGAVTTSNYANWVQEKPGQAFRGLIGGTNKRAPGTPARFSGSLLGGKAALTLSGAQPEDEAEYYCALWYSNLWVFGGGTKLTVLSSASTKGPSVFPLAPSSKSTSGGTAALGCLVKDYFPEPVTVSWNSGALTSGVHTFPAVLQSSGLYSLSSVVTVPSSSLGTQTYICNVNHKPSNTKVDKKVEPKSC
heavy 1: not shown
heavy 2: QVQLQESGPGLVKPSQTLSLTCTVSGGSITSGYYWNWIRQHPGKGLEWIGYITFDGSNNYNPSLKSRVTISRDTSKNQFSLKLSSVTAADTAVYYCADFDYWGQGTLVTVSSASTKGPSVFPLAPSSKSTSGGTAALGCLVKDYFPEPVTVSWNSGALTSGVHTFPAVLQSSGLYSLSSVVTVPSSSLGTQTYICNVNHKPSNTKVDKKVEPKSCDKTHTCPPCPAPEAAGGPSVFLFPPKPKDTLMISRTPEVTCVVVDVSHEDPEVKFNWYVDGVEVHNAKTKPREEQYNSTYRVVSVLTVLHQDWLNGKEYKCKVSNKALGAPIEKTISKAKGQPREPQVCTLPPSRDELTKNQVSLSCAVKGFYPSDIAVEWESNGQPENNYKTTPPVLDSDGSFFLVSKLTVDKSRWQQGNVFSCSVMHEALHNHYTQKSLSLSPGK
notes: also called MCSP TCB antibody; MCSP CD3 bispecific antibody
B2: “2+1 IgG scFab, wt” (anti-MCSP/anti-huCD3) (bispecific antibody)
chain 1: DIVLTQSPSSLSASLGDRVTISCSASQGIRNYLNWYQQRPDGTVKLLIYYTSSLHSGVPSRFSGSGSGTDYSLTISNLEPEDIATYYCQQYSKLPWTFGGGTKLEIKRTVAAPSVFIFPPSDEQLKSGTASVVCLLNNFYPREAKVQWKVDNALQSGNSQESVTEQDSKDSTYSLSSTLTLSKADYEKHKVYACEVTHQGLSSPVTKSFNRGEC
chain 2: not shown
chain 3: not shown
notes: Wild-type Fc domain; also called Fc-wt; copies: 2 + 1 + 1

Experiments:
murine MCSP D3 = target: T1, murine MCSP D3; experiment: SPR Biacore T100, 25 C; TCB captured via anti-human Fab, antigen as analyte; steady state
Protocol: (§1) Capture IgG was coupled to the sensorchip surface by direct immobilization of around 7,500 resonance units (RU) at pH 5.0 using the standard amine coupling kit (Biacore, Freiburg/Germany). […] Since the interaction with murine MCSP (SEQ ID NO: 380) was expected to be weak the concentration range for this antigen was chosen between 3.9 and 500 nM. The dissociation for all interactions was monitored for 120 s. Bulk refractive index differences were corrected for by subtracting the response obtained on a reference flow cell.
(§2) Kinetic constants were derived using the Biacore T200 Evaluation Software (vAA, Biacore AB, Uppsala/Sweden), to fit rate equations for 1:1 Langmuir binding by numerical integration. […] The half-life (t_{1/2}) of the interaction was calculated using following formula: t_{1/2}=ln 2/koff.

cynomolgus MCSP D3 [1] = target: T2, cynomolgus MCSP D3; experiment: SPR Biacore T100, 25 C; TCB captured via anti-human Fab, antigen as analyte
Protocol: (§3) Surface plasmon resonance (SPR) experiments were performed on a Biacore T100 at 25° C. with HBS-EP as running buffer (0.01 M HEPES pH 7.4, 0.15 M NaCl, 3 mM EDTA, 0.005% Surfactant P20, Biacore, Freiburg/Germany).
as §1, §2

[2] = target: T3, hu-MCSP(D3 domain)-avi-his; experiment: as above
Protocol: as §3, §1, §2

[3] = target: T5, human CD3ε stalk-Fc (knob)-Avi/CD3δ-stalk-Fc(hole) (human); experiment: as above
T5 construct: also called Human CD3ε/CD3δ; recombinant CD3ε/CD3δ
T5 sequence (chain, as listed by the source mutant limits assumed, chain 1 of 2): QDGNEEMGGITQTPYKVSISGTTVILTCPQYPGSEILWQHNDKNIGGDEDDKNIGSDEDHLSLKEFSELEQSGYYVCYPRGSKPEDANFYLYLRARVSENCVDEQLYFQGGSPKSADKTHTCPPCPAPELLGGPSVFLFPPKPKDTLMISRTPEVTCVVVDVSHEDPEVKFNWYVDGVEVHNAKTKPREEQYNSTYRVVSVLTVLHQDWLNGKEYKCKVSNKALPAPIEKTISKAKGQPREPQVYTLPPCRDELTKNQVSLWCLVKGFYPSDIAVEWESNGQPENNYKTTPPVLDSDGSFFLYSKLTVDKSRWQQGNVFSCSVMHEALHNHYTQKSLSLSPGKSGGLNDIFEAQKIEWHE
T5 sequence (chain, as listed by the source mutant limits assumed, chain 2 of 2): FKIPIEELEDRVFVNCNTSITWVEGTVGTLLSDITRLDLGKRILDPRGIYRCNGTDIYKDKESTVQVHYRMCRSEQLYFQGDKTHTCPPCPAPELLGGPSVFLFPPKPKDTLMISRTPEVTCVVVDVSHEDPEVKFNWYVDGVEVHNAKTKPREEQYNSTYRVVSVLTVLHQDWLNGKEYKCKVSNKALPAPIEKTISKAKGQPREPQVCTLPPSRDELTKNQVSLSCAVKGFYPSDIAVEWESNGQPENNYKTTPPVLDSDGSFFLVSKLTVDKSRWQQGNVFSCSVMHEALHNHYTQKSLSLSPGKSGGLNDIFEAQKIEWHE
Protocol: as §3, §1, §2

cynomolgus MCSP D3 [4] = target: T2, cynomolgus MCSP D3; experiment: SPR Biacore T100, 25 C; t1/2 = ln 2/koff
Protocol: as §1, §2

[5] = target: T3, hu-MCSP(D3 domain)-avi-his; experiment: SPR Biacore T100, 25 C; t1/2 = ln 2/koff
Protocol: as §1, §2

[6] = target: T5, human CD3ε stalk-Fc …; experiment: SPR Biacore T100, 25 C; t1/2 = ln 2/koff
Protocol: as §1, §2

HuFcγRIIIa-V158-K6H6 [7] = target: T6, HuFcγRIIIa-V158-K6H6 (human, UniProt P08637 17-208, limits assumed); experiment: SPR Biacore T100, 25 C; receptor captured via anti-Penta His, construct as analyte; kinetic, one concentration (1000 nM)
T6 construct: His-tagged recombinant receptor captured by anti-Penta His antibody; also called human FcγRIIIa-V158; human FcγRIIIa
T6 sequence (P08637 17-208 F176V limits assumed): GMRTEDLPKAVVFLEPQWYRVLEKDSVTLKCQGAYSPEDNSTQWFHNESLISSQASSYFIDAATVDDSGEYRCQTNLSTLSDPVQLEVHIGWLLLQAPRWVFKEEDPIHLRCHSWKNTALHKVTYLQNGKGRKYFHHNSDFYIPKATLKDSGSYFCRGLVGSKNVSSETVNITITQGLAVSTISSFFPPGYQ
Protocol: (§4) For analyzing interaction of different Fc-variants with human FcγRIIIa-V158 and murine FcγRIV direct coupling of around 6,500 resonance units (RU) of the anti-Penta His antibody (Qiagen) is performed on a CM5 chip at pH 5.0 using the standard amine coupling kit (Biacore, Freiburg/Germany). HuFcγRIIIa-V158-K6H6 and muFcγRIV-aviHis-biotin are captured for 60 s at 4 and 10 nM respectively.
(§5) Constructs with different Fc-mutations are passed through the flow cells for 120 s at a concentration of 1000 nM with a flow rate of 30 μl/min. The dissociation is monitored for 220 s. Bulk refractive index differences are corrected for by subtracting the response obtained in a reference flow cell. […] Affinity for human FcγRIIIa-V158 and murine FcγRIV was determined for wild-type Fc using a concentration range from 500-4000 nM.

muFcγRIV-aviHis-biotin [8] = target: T4, muFcγRIV-aviHis-biotin; experiment: SPR Biacore T100, 25 C; receptor captured via anti-Penta His, construct as analyte; kinetic
Protocol: as §4, §5
(§6) The steady state response was used to derive the dissociation constant KD by non-linear curve fitting of the Langmuir binding isotherm. Kinetic constants were derived using the Biacore T100 Evaluation Software (vAA, Biacore AB, Uppsala/Sweden), to fit rate equations for 1:1 Langmuir binding by numerical integration.

HuFcγRIIIa-V158-K6H6 [9] = target: T6, HuFcγRIIIa-V158-K6H6; experiment: SPR Biacore T100, 25 C; receptor captured via anti-Penta His, construct as analyte; kinetic, value in brackets not explained
Protocol: as §4, §5, §6

muFcγRIV-aviHis-biotin [10] = target: T4, muFcγRIV-aviHis-biotin; experiment: SPR Biacore T100, 25 C; receptor captured via anti-Penta His, construct as analyte; steady state
Protocol: as §4, §5, §6

HuFcγRIIIa-V158-K6H6 [11] = target: T6, HuFcγRIIIa-V158-K6H6; experiment: as above
Protocol: as §4, §5, §6

Row | Binder | Kd (murine MCSP D3) [nM] | Kd (cynomolgus MCSP D3 [1]) [nM] | Kd [2] [nM] | Kd [3] [nM] | t1/2 (cynomolgus MCSP D3 [4]) [h] | t1/2 [5] [h] | t1/2 [6] [min] | Kd (HuFcγRIIIa-V158-K6H6 [7]) [nM] | Kd (muFcγRIV-aviHis-biotin [8]) [nM] | Kd (HuFcγRIIIa-V158-K6H6 [9]) [nM] | Kd (muFcγRIV-aviHis-biotin [10]) [nM] | Kd (HuFcγRIIIa-V158-K6H6 [11]) [nM]
1 | B1 | 1570 | 0.12 | 0.15 | 78.7 | 4.38 | 3.42 | 2.9 |  |  |  |  | 
2 | B2 |  |  |  |  |  |  |  | 600 | 576 | 1200 | 1500 | 3470
